For the data set the following is noted: Homo sapiens, Thermal, DSC, NaCl 0.13 M, whole UniProt chain shown.
Where [1] appears, read: pH 5, Sodium acetate 0.02 M, reversible: yes.
Setting [2] is: pH 6.5, Sodium phosphate 0.01 M, reversible: yes.
The mark [3] stands for this setting: pH 6.5, Sodium phosphate 0.01 M, reversible: no.
Setting [4] is: pH 8.1, HEPES 0.01 M, reversible: no.

Consider two proteins from FireProtDB (doi:10.1111/j.1432-1033.1992.tb17411.x).

B1: Cystatin-A wild type, P01040 (protein)
chain: MIPGGLSEAKPATPEIQEIVDKVKPQLEEKTNETYGKLEAVQYKTQVVAGTNYYIKVRAGDNKYMHLKVFKSLPGQNEDLVLTGYQVDKNKDDELTGF
The Tm is the temperature at the midpoint of the melting transition. For B1, under setting [1], the Tm worked out at 90.8 °C, the “unfolding enthalpy (calorimetric)” value was 473 kJ/mol and the “unfolding enthalpy (van 't Hoff)” value worked out at 540 kJ/mol. Moreover, under setting [2], the Tm was determined as 94.5 °C, the “unfolding enthalpy (calorimetric)” value turned out to be 486 kJ/mol and the “unfolding enthalpy (van 't Hoff)” value came to 619 kJ/mol.

B2: Cystatin-B wild type, P04080 (protein)
chain: MMCGAPSATQPATAETQHIADQVRSQLEEKENKKFPVFKAVSFKSQVVAGTNYFIKVHVGDEDFVHLRVFQSLPHENKPLTLSNYQTNKAKHDELTYF
B2: the Tm by setting is: under setting [1], 50.2 °C; under setting [3], 64.9 °C; under setting [4], 65.9 °C. In addition, the “unfolding enthalpy (calorimetric)” value under setting [1] is 293 kJ/mol, the “unfolding enthalpy (calorimetric)” value under setting [3] amounted to 327 kJ/mol and the “unfolding enthalpy (calorimetric)” value under setting [4] turned out to be 339 kJ/mol. Besides, the “unfolding enthalpy (van 't Hoff)” value under setting [1] turned out to be 306 kJ/mol. In addition, the unfolding free energy runs as follows: (pH 8.1, 10 °C, HEPES 0.01 M, reversible: yes) 25.1 kJ/mol; (pH 8.1, 25 °C, HEPES 0.01 M, reversible: yes) 24.7 kJ/mol; (pH 8.1, 45 °C, HEPES 0.01 M, reversible: yes) 16.7 kJ/mol; (pH 8.1, 50 °C, HEPES 0.01 M, reversible: yes) 13.4 kJ/mol.
